Data published in publication PMC8396345, “Target Affinity and Structural Analysis for a Selection of Norovirus Aptamers”.

B1: AG3 (ssDNA)
DNA: GCTAGCGAATTCCGTACGAAGGGCGAATTCCACATTGGGCTGCAGCCCGGGGGATCC

Key:
[1] = molecular target: T1, norovirus GI.1 VLP (major capsid protein VP1) (Norovirus GI.1, UniProt Q83884 1-530); assay: filter binding; Kd not determined; FRA: 1 nM 32P-aptamer, 0-1500 nM VLP, 60 min, each aptamer's original selection buffer (M1, M6-2, SMV19, SMV21: PBS pH 7.4; others in Table S1, not in material); FRA temperature not stated; pull-down at room temperature; conditions: protein: recombinant, chain copies: 180, label: 5'-32P (FRA)
T1 sequence (Q83884 whole entry): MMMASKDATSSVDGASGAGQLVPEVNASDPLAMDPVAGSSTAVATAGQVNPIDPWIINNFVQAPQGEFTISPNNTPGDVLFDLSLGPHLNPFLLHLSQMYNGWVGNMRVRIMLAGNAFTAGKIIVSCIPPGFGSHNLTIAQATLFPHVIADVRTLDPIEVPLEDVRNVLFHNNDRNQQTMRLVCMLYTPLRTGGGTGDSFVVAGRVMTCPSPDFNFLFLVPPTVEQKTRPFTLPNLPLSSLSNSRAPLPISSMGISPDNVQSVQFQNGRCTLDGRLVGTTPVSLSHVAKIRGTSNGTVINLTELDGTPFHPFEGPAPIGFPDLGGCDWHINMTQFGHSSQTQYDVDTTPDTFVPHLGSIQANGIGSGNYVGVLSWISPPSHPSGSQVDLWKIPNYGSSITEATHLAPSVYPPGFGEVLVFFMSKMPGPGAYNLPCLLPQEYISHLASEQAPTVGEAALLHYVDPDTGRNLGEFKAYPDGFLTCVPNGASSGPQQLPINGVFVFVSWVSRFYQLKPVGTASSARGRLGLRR

[2] = molecular target: T1, norovirus GI.1 VLP (major capsid …); assay: filter binding; <10% bound at 1500 nM; FRA: 1 nM 32P-aptamer, 0-1500 nM VLP, 60 min, each aptamer's original selection buffer (M1, M6-2, SMV19, SMV21: PBS pH 7.4; others in Table S1, not in material); FRA temperature not stated; pull-down at room temperature; conditions: protein: recombinant; chain copies: 180; label: 5'-32P (FRA); B-DNA-like CD

Binder | binding result ([1]; B-DNA-like CD) | further results
GTCTGTAGTAGGGAGGATGGTCCGGGGCCCCGAGACGACGTTATCAGGC (ssDNA) [Beier] | no binding | –
CACCAGTGTGTTGAGGTTTGAGCACACTGATAGAGTGTCA (ssDNA) [SMV19] | no binding | –
B1 | no binding | –
TGTTTATGGGGATAAACGTATCTAATTCGTGTACTAATCA (ssDNA) [M1] | – | binding result [2]: no binding
CCATGTTTTGTAGGTGTAATAGGTCATGTTAGGGTTTCTG (ssDNA) [SMV21] | no binding | –
GAAATTGGGTTCGGGTTTGGGTTGGGATTACTTAGCGATG (structured_DNA) [Buf-2] | – | binding result ([1]; inter- or intramolecular not resolved): no binding
TGGGAAGAGGTCCGGTAAATGCAGGGTCAGCCCGGAGAG (ssDNA) [M6-2] | – | binding result [2]: no binding
